Consider 4 molecules from patent US20040175731, “Methods and products for treating staphylococcal infections” (The Brigham and Women's Hospital, Inc., published 2004).

Data set [1] deals with T1, IcaR (Staphylococcus aureus, UniProt Q9RQQ0 SEQ:1-186).
T1 sequence: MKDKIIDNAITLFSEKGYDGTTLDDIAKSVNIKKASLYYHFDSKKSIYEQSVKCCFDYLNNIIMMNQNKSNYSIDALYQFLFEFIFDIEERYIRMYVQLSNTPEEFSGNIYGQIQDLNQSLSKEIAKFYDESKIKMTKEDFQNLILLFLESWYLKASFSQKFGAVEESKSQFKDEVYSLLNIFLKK
The data set can be described thus: EMSA; data not shown. The conditions noted are these: tags: N-terminal His6 (pCRT7-NT); chain copies: 2; label: 32P. (In EMSA bound probe runs differently from free probe, usually more slowly.)

For data set [2], the target named is T1, IcaR. The experiment in a line: EMSA; on ice; competed by 100x specific competitor. The conditions noted are these: tags: N-terminal His6 (pCRT7-NT); chain copies: 2; label: 32P.
Data set [3] concerns the target T2, TcaR (Staphylococcus aureus, UniProt Q9F4G3 Q9F4G3:1-151). The experiment in a line: footprint; data not shown; multiple sites protected, specific and high affinity. The settings on record: chain copies: 2; label: 32P.
Data set [4] concerns the target T1, IcaR. The data set can be described thus: EMSA; recombinant IcaR failed to bind either short probe. The conditions noted are these: tags: N-terminal His6 (pCRT7-NT); chain copies: 2; label: 32P.
Data set [5] deals with T1, IcaR. The data set can be described thus: EMSA; no detectable difference from WT probe. The conditions noted are these: tags: N-terminal His6 (pCRT7-NT); chain copies: 2; label: 32P.
The target in data set [6] is T2, TcaR. The data set can be described thus: footprint; data not shown; protection much the same as WT. The conditions noted are these: chain copies: 2; label: 32P.

T2 sequence (Q9F4G3 whole entry, one chain of several): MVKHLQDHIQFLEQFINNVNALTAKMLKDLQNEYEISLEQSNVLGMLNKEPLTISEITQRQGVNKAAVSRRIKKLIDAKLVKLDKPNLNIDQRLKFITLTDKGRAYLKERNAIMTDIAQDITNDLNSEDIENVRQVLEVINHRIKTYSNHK

B1: WTshort 53-bp (dsDNA)
DNA 1: CTATGTTACAGGAAAATTAAGTTGCAATTACAAATATTTCCGTTTAATTATAA
DNA 2: TTATAATTAAACGGAAATATTTGTAATTGCAACTTAATTTTCCTGTAACATAG
As to B1, in the data set with IcaR [1], the binding result is given as “no binding”.

B2: 198-bp WT ica promoter probe (dsDNA)
DNA 1: ATTGCGTTATCAATAATCTTATCCTTCAATTTTTATAACCCCCTACTGAAAATTAATCACACTATGTTACAGGAAAATTAAGTTGCAATTACAAATATTTCCGTTTAATTATAACAACAATCTATTGCAAATTAAAATACTATCAATTACCATATGGCTTACAACCTAACTAACGAAAGGTAGGTAAAGAAATTGCAA
DNA 2: TTGCAATTTCTTTACCTACCTTTCGTTAGTTAGGTTGTAAGCCATATGGTAATTGATAGTATTTTAATTTGCAATAGATTGTTGTTATAATTAAACGGAAATATTTGTAATTGCAACTTAATTTTCCTGTAACATAGTGTGATTAATTTTCAGTAGGGGGTTATAAAAATTGAAGGATAAGATTATTGATAACGCAAT
B2: the binding result in the data set with IcaR [2] and with TcaR [3] was “binds” throughout.

B3: DEL/MUC 48-bp (dsDNA)
DNA 1: CTATGTTACAGGAAAATTAAGTTGCAATTACAAACCGTTTAATTATAA
DNA 2: TTATAATTAAACGGTTTGTAATTGCAACTTAATTTTCCTGTAACATAG
On to B3, for which, in the data set with IcaR [4], the binding result is reported as “no binding”.

B4: 193-bp MUC ica promoter probe (dsDNA)
DNA 1: ATTGCGTTATCAATAATCTTATCCTTCAATTTTTATAACCCCCTACTGAAAATTAATCACACTATGTTACAGGAAAATTAAGTTGCAATTACAAACCGTTTAATTATAACAACAATCTATTGCAAATTAAAATACTATCAATTACCATATGGCTTACAACCTAACTAACGAAAGGTAGGTAAAGAAATTGCAA
DNA 2: TTGCAATTTCTTTACCTACCTTTCGTTAGTTAGGTTGTAAGCCATATGGTAATTGATAGTATTTTAATTTGCAATAGATTGTTGTTATAATTAAACGGTTTGTAATTGCAACTTAATTTTCCTGTAACATAGTGTGATTAATTTTCAGTAGGGGGTTATAAAAATTGAAGGATAAGATTATTGATAACGCAAT
As to B4, the binding result in the data set with IcaR [5] and in the data set with TcaR [6] was “binds” in each case.
